Experimental data published in US20260130973A1, “COMPOSITIONS AND METHODS FOR DEGRADATION OF LIPOFUSCIN CYCLORETINAL BY MSP1” (THE TEXAS A&M UNIVERSITY SYSTEM, priority 2022, published 2026).
Where a chain is given by its changes, count along the chain named. Numbers in names are those of the source. Entries after “also recorded” stand apart in the source; their conditions may differ.

Assays:
ARPE-19 cells = test: ARPE-19 cytotoxicity of liposomal complexes, MTT assay; assay type: cell-based; settings: similar concentrations as cycloretinal, 96-h period
Method: The liposomal complexes were prepared as follows. Cycloretinal (10 mg), β-Ionone (20 mg), and 2,4-Dimethylbenzaldehyde (20 mg) were dissolved separately in ethanol (1 mL). Glyoxal (5.80 mg), methylglyoxal (7.21 mg), and β-cyclocitral (15.2 mg) were dissolved separately in chloroform (1 mL). A liposome solution of cholesterol (112 mg), Tween 80 (504 mg), and L-α-phosphatidylcholine (730 mg) were dissolved in 16 mL of chloroform. Liposome solution (2 mL) was added to each of the compounds. The solvents were removed under vacuum and charged with nitrogen. Each of the flasks were then mixed with 5 mL of water and stirred at 60° C. for 1 h. Each solution was placed on ice and sonicated with a probe sonicator (15 seconds on/15 seconds off) for 5 min. The solutions were centrifuged at 11,000×g for 30 min and filtered through a 0.2 μm filter. Each sample (10 μL) was added to 1 mL ethanol and measured by absorption via UV-Vis spectroscopy. The extinction coefficients were 9970 M^−1cm^−1, 26343 M^−1cm^−1, and 13476 M^−1cm^−1 for cycloretinal, 2,4-dimethylbenzaldehyde, and β-ionone, respectively. […]
Cell viability was assessed with the MTT cell proliferation assay. […] The absorbance was subsequently evaluated at 570 nm utilizing a microplate reader (quant absorbance plate reader, BioTek Instruments Inc.) […]

[1] = MsP1 catalyzed degradation of cycloretinal; visual inspection and HPLC time course of degradation products; assay type: biochemical; settings: at 12 hours
Method: After 24 hours of incubation, broth cultures were transferred to sterile Eppendorf tubes and the organics extracted using an equal volume of dichloromethane (DCM) through vigorous vortexing. The organics were separated by centrifugation (13,000 rpm for 20 minutes), retrieved with a needle, and subsequently concentrated under nitrogen. The dried product was solubilized in 20 μL DCM and analyzed by high performance liquid chromatography (HPLC). HPLC analysis was performed on a Varian Prostar system equipped with a Phenomenex 5 μm 100 Å normal phase column (250×10 mm×5 micron), a UV detector set at 320 nm wavelength and mobile phase comprising 97% DCM and 3% methanol with flow rate of 2 mL/min. Products eluted were further analyzed by GC-MS.
Substrate emulsions (0.01%) were prepared, and Tween 40 was used to enhance solubilization of compounds, or otherwise dissolved in ethanol or DMSO. […]
To generate a standard curve for the degradation products, different concentrations of 2,4-dimethyl benzaldehyde (2, 4, 6, 8, 10 μg/20 μL) and β-ionone (1, 2, 3, 4 μg/20 μL) were analyzed by HPLC under the same conditions as as detailed in Example 3.
To identify the degradation products, cycloretinal was incubated for 1 hour with MsP1 in the presence of hydrogen peroxide. Following incubation, the reaction mixture was extracted and analyzed by GC-MS. […]

[2] = Activity of MsP1 at different pH (cycloretinal degradation); assay type: biochemical
Method: To determine the optimum pH for MsP1 activity, cycloretinal degradation reactions were carried out in PBS buffer as described herein but at different pH values by adjusting pH with either NaOH or HCl (i.e. a pH of 5.5, 6.4, 7.0, 7.5). Sample OD values were monitored using a UV-Vis spectrophotometer (Genesys™2, ThermoSpectronic) at 430 nm over a period of 300 seconds.

[3] = substrate: CC(C=CC1=C(C)CCCC1(C)C)=CC=CC1=CC=C(C=O)C(C)(C=CC=C(C)C=CC2=C(C)CCCC2(C)C)C1; test: MsP1 H365F variant-catalyzed degradation of cycloretinal, steady-state enzyme kinetics; assay type: biochemical, Marasmius scorodonius; settings: other: H365F, PBS pH 7.4, H2O2, 430 nm, mean and 95% confidence limits
Method: (§1) The gene encoding Marasmius scorodonius extracellular peroxidase MsP1 (UniProtKB, B0BK71) and its R388L variant were chemically synthesized with codon optimization for E. coli, having an optimized sequence length 1539 bp cloned into pUC57 vector with a GC content of 54.67% (SEQ ID NO: 5).
(§2) MsP1 mutants were generated using the Agilent mutagenesis kit (Quick change II site directed mutagenesis kit, catalog number: 200523) and primers of Table 1. Primer annealing was carried out at 55° C. for 60 seconds followed by a polymerization step carried out at 68° C. for 5 minutes. A total of 16 cycles were carried out. After PCR amplification DpnI digestion was performed by adding 1.5 μL DpnI to PCR amplification mixture incubating for 4 hours at 37° C. The resulting mixture was cleaned using resin provided in the kit and transformed into XL1 Blue electrocompetent cells. The resulting clones were screened and sequenced to confirm mutagenesis.
(§3) Active site residues were selected based on multiple sequence alignment with homologous DyPs and protein modelling, His 365, Asp 228, and Arg 388 were identified as amino acids that are critical to MsP1 activity. […] This means that wtMsP1 has greater substrate affinity for cycloretinal, compared with D228A and R388L variants, and reaches half maximal velocity at lower substrate concentration. […] The greater affinity observed for the phenylalanine variant likely signifies that cycloretinal can dock with greater affinity in the active site since the iron porphyrin heme cofactor would no longer be covalently bound at residue 365. Therefore, the residues involved in MsP1 catalysis are D228, H365, and R388 (FIG. 10).

[4] = substrate: CC(C=CC1=C(C)CCCC1(C)C)=CC=CC1=CC=C(C=O)C(C)(C=CC=C(C)C=CC2=C(C)CCCC2(C)C)C1; test: MsP1 D228A variant-catalyzed degradation of cycloretinal, steady-state enzyme kinetics; assay type: biochemical, Marasmius scorodonius; settings: other: D228A, PBS pH 7.4, H2O2, 430 nm, mean and 95% confidence limits
Method: as §1, §2, §3

[5] = substrate: CC(C=CC1=C(C)CCCC1(C)C)=CC=CC1=CC=C(C=O)C(C)(C=CC=C(C)C=CC2=C(C)CCCC2(C)C)C1; test: MsP1 R388L variant-catalyzed degradation of cycloretinal, steady-state enzyme kinetics; assay type: biochemical, Marasmius scorodonius; settings: other: R388L, PBS pH 7.4, H2O2, 430 nm, mean and 95% confidence limits
Method: as §1, §2, §3

[6] = substrate: CC(C=CC1=C(C)CCCC1(C)C)=CC=CC1=CC=C(C=O)C(C)(C=CC=C(C)C=CC2=C(C)CCCC2(C)C)C1; test: MsP1-catalyzed degradation of cycloretinal, steady-state enzyme kinetics (decrease in absorbance at 430 nm); assay type: biochemical, Marasmius scorodonius; settings: other: wtMsP1, PBS pH 7.4, H2O2, 430 nm, mean and 95% confidence limits
Source text: as §1

O=CC=O [glyoxal]
impact on cell viability / toxicity to ARPE-19 cells (ARPE-19 cells): no impact on cell viability; also recorded: do not exhibit toxicity

CC(=O)/C=C/C1=C(C)CCCC1(C)C [β-ionone]
level of degradation product in MsP1/cycloretinal reaction (HPLC, standard curve) [1]: undetectable levels | impact on cell viability / toxicity to ARPE-19 cells (ARPE-19 cells): no impact on cell viability; also recorded: do not exhibit toxicity

B1: MsP1: peroxidase enzyme from the organism Marasmius scorodonius, SEQ ID NO: 1; recombinant, N-terminal hexa-Histidine tag (protein, listed as Mycetinis scorodonius)
chain: MKLFSASVFAAIIASHYASATAHIRAPNVKPRRTNSLLTAPPQQPPLPSAQQAASASSSAGLNLTDIQGDILIGMKKNKELFFFFSITDAATFKAKLGSDILELITSTNQLLAVATQPITAVNVAFSSTGLKALGITDDLKDPVFEAGMLSNAVSDLSDPGTGNWVPGFVGTSVHGVFLLASDTIDNVNTELANIQTILNGSITEIHRLQGEARPGDQQGHEHFGFMDGISNPAVDGFTPPAEIRPGQALIPPGIMLLGEANDTFQNDRPPWAKDGSFLVFRQMQQRAPEFNKFLQDHALNMPNMTSEQGADLLGARIVGRWKSDAPIDLTPLVDDPVLAADNQRNNNFDFSDATNQTRCPFSAHIRKANPRGDLGGINKFPNQHIIRAGIPYGPEVTDAEKASNSSSTDPSLERGLAFVAYQSNIQNGFVFLQKNWVDNTNFFRPGTGVDPLIGTNSRNSGTDAPNTPRVVSGLDPNNATSTIEIGIDFVVSRGGEYFFSPSLSAIRTVLSV
modifications: MsP1 amino acid sequence
optimal pH for MsP1 catalytic activity towards cycloretinal ([2]; pH 5.5, 6.4, 7.0, 7.5 tested): 5.5 | activity at lysosomal pH ([2]; pH of 5.5): highly active

B2: Marasmius scorodonius peroxidase MsP1 variant H365F (parent SEQ ID NO: 1) (Mycetinis scorodonius; H365F) (protein)
chain: ASSSAGLNLTDIQGDILIGMKKNKELFFFFSITDAATFKAKLGSDILELITSTNQLLAVATQPITAVNVAFSSTGLKALGITDDLKDPVFEAGMLSNAVSDLSDPGTGNWVPGFVGTSVHGVFLLASDTIDNVNTELANIQTILNGSITEIHRLQGEARPGDQQGHEHFGFMDGISNPAVDGFTPPAEIRPGQALIPPGIMLLGEANDTFQNDRPPWAKDGSFLVFRQMQQRAPEFNKFLQDHALNMPNMTSEQGADLLGARIVGRWKSDAPIDLTPLVDDPVLAADNQRNNNFDFSDATNQTRCPFSAFIRKANPRGDLGGINKFPNQHIIRAGIPYGPEVTDAEKASNSSSTDPSLERGLAFVAYQSNIQNGFVFLQKNWVDNTNFFRPGTGVDPLIGTNSRNSGTDAPNTPRVVSGLDPNNATSTIEIGIDFVVSRGGEYFFSPSLSAIRTVLSV
notes: site-directed mutant
Km [3]: 906 ± 26 µM | kcat [3]: 0.142 ± 0.0031 s⁻¹ | kcat/Km [3]: 156 ± 8 M⁻¹ s⁻¹

B3: Marasmius scorodonius peroxidase MsP1 variant D228A (parent SEQ ID NO: 1) (Mycetinis scorodonius; D228A) (protein)
chain: B2 chain with D173A, F310H
notes: site-directed mutant
Km [4]: 4230 ± 82 µM | kcat [4]: 0.388 ± 0.0073 s⁻¹ | kcat/Km [4]: 91.6 ± 3.5 M⁻¹ s⁻¹

B4: Marasmius scorodonius peroxidase MsP1 variant R388L (parent SEQ ID NO: 1) (Mycetinis scorodonius; R388L) (protein)
chain: B2 chain with F310H, R333L
notes: R388L variant gene synthesized
Km [5]: 1140 ± 11 µM | kcat [5]: 0.0218 ± 0.00018 s⁻¹ | kcat/Km [5]: 19.2 ± 0.3 M⁻¹ s⁻¹

B5: Marasmius scorodonius peroxidase MsP1, wild type (wtMsP1), SEQ ID NO: 1 (Mycetinis scorodonius) (protein)
chain: B2 chain with F310H
notes: wild type
Km [6]: 845 ± 11 µM | kcat [6]: 0.229 ± 0.0024 s⁻¹ | kcat/Km [6]: 271 ± 6.2 M⁻¹ s⁻¹
